Laboratory results as given in US5885797, “Polynucleotide sequences encoding proteins involved in myogenesis” (Fred Hutchinson Cancer Research Center, dated 1999).

Experiments:
[1] = molecular target: MyoD (full length, mouse) (mouse, UniProt P10085); assay: cell-based or functional assay
[2] = molecular target: T1, Myf5 (full length, mouse) (mouse, UniProt P24699); assay: cell-based or functional assay
[3] = molecular target: T2, Myogenin (full length, mouse) (mouse, UniProt P12979); assay: cell-based or functional assay
[4] = molecular target: T3, VP16-I-mfb (mouse); assay: yeast hybrid assay, strain L40, β-galactosidase reporter
T3 chain: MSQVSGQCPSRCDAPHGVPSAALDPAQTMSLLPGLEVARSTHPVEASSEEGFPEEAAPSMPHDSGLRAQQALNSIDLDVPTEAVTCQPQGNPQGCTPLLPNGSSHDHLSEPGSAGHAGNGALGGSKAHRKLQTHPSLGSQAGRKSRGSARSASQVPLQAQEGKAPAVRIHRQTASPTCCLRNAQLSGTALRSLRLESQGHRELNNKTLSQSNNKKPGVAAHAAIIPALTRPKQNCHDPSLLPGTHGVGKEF

[5] = molecular target: T4, VP16-I-mfc (mouse); assay: as above
T4 chain: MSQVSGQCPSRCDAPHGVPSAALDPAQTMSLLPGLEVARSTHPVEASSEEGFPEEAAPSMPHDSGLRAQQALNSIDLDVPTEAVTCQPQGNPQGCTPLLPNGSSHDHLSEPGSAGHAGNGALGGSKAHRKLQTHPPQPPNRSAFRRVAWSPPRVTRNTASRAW

[6] = molecular target: T2, Myogenin (full length, mouse); assay: yeast one-hybrid, strain L40, β-galactosidase reporter
[7] = molecular target: T5, Lethal of Scute (AS-C T3) (Drosophila melanogaster (Fruit fly), UniProt P09774); assay: as above
T5 sequence: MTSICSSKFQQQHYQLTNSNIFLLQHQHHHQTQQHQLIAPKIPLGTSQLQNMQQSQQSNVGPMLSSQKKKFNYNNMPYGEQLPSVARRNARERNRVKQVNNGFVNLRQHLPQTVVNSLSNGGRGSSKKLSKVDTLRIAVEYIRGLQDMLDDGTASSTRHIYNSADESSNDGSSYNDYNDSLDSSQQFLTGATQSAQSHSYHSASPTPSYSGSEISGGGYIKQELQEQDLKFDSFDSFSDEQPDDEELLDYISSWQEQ

[8] = molecular target: T5, Lethal of Scute (AS-C T3); assay: as above; remark: listed apart in the source
[9] = molecular target: T1, Myf5 (full length, mouse); assay: as above
[10] = molecular target: T1, Myf5 (full length, mouse); assay: yeast hybrid assay, strain L40, β-galactosidase reporter
[11] = molecular target: T1, Myf5 (full length, mouse); assay: column 'Interaction with Myf5' of Table 4 (yeast hybrid assay of Table 3)

B1: I-mfa (other)
chain: MSQVSGQCPSRCDAPHGVPSAALDPAQTMSLLPGLEVARSTHPVEASSEEGFPEEAAPSMPHDSGLRAQQALNSIDLDVPTEAVTCQPQGNPQGCTPLLPNGSSHDHLSEPGSAGHAGNGALGGSKAHRKLQTHPSLGSQAGRKSRGSARSASQVPLQAQEDCCVHCILSCLFCEFLTLCNILLDCATCGSCSSEDSCLCCCCCGSGECADCDLPCDLDCGIVDACCESADCLEICMECCGLCFSS
In the case of B1, the “Relative CAT Activity (%), 4RCAT (10T/2 cells)” value (“Relative CAT Activity (%), 4RCAT” below) [1] is reported as 56%, the “Relative CAT Activity (%), MCK-CAT (NIH3T3 cells)” value (shortened to “Relative CAT Activity (%), MCK-CAT”) [1] is reported as 27% and the “Relative CAT Activity (%), 4RCAT” value [2] is reported as 13%. The “Relative CAT Activity (%), MCK-CAT” value [2] was 9% and the “Relative CAT Activity (%), MCK-CAT” value [3] was 2%.

B2: I-mfb (other)
chain: MSQVSGQCPSRCDAPHGVPSAALDPAQTMSLLPGLEVARSTHPVEASSEEGFPEEAAPSMPHDSGLRAQQALNSIDLDVPTEAVTCQPQGNPQGCTPLLPNGSSHDHLSEPGSAGHAGNGALGGSKAHRKLQTHPSLGSQAGRKSRGSARSASQVPLQAQEGKAPAVRIHRQTASPTCCLRNAQLSGTALRSLRLESQGHRELNNKTLSQSNNKKPGVAAHAAIIPALTRPKQNCHDPSLLPGTHGVGKEF
With B2 the “Relative CAT Activity (%), 4RCAT” value [1] was 95%, the “Relative CAT Activity (%), MCK-CAT” value [1] was 87% and the “Relative CAT Activity (%), 4RCAT” value [2] was 105%. The “Relative CAT Activity (%), MCK-CAT” value [2] was 132% and the “Relative CAT Activity (%), MCK-CAT” value [3] was 101%.

B3: LexA-I-mfa (1-202) (other)
chain: MSQVSGQCPSRCDAPHGVPSAALDPAQTMSLLPGLEVARSTHPVEASSEEGFPEEAAPSMPHDSGLRAQQALNSIDLDVPTEAVTCQPQGNPQGCTPLLPNGSSHDHLSEPGSAGHAGNGALGGSKAHRKLQTHPSLGSQAGRKSRGSARSASQVPLQAQEDCCVHCILSCLFCEFLTLCNILLDCATCGSCSSEDSCLCCC
In the case of B3, the β-galactosidase activity [4] is reported as < 0.1 arbitrary units and the β-galactosidase activity [5] is reported as < 0.1 arbitrary units.

B4: LexA-I-mfa (87-246) (other)
chain: QPQGNPQGCTPLLPNGSSHDHLSEPGSAGHAGNGALGGSKAHRKLQTHPSLGSQAGRKSRGSARSASQVPLQAQEDCCVHCILSCLFCEFLTLCNILLDCATCGSCSSEDSCLCCCCCGSGECADCDLPCDLDCGIVDACCESADCLEICMECCGLCFSS
In the case of B4, the β-galactosidase activity [4] is reported as 0.6 arbitrary units.

B5: LexA (other)
chain: MKALTARQQEVFDLIRDHISQTGMPPTRAEIAQRLGFRSPNAAEEHLKALARKGVIEIVSGASRGIRLLQEEEEGLPLVGRVAAGEPLLAQQHIEGHYQVDPSLFKPNADFLLRVSGMSMKDIGIMDGDLLAVHKTQDVRNGQVVVARIDDEVTVKRLKKQGNKVELLPENSEFKPIVVDLRQQSFTIEGLAVGVIRNGDWL
For B5, the β-galactosidase activity [6] was 0.6 arbitrary units.

B6: LexA-I-mfa (other)
chain: MKALTARQQEVFDLIRDHISQTGMPPTRAEIAQRLGFRSPNAAEEHLKALARKGVIEIVSGASRGIRLLQEEEEGLPLVGRVAAGEPLLAQQHIEGHYQVDPSLFKPNADFLLRVSGMSMKDIGIMDGDLLAVHKTQDVRNGQVVVARIDDEVTVKRLKKQGNKVELLPENSEFKPIVVDLRQQSFTIEGLAVGVIRNGDWLMSQVSGQCPSRCDAPHGVPSAALDPAQTMSLLPGLEVARSTHPVEASSEEGFPEEAAPSMPHDSGLRAQQALNSIDLDVPTEAVTCQPQGNPQGCTPLLPNGSSHDHLSEPGSAGHAGNGALGGSKAHRKLQTHPSLGSQAGRKSRGSARSASQVPLQAQEDCCVHCILSCLFCEFLTLCNILLDCATCGSCSSEDSCLCCCCCGSGECADCDLPCDLDCGIVDACCESADCLEICMECCGLCFSS
B6 gave a β-galactosidase activity [4] of 0.7 arbitrary units and a β-galactosidase activity [5] of 0.5 arbitrary units.

B7: I-mfc (other)
chain: MSQVSGQCPSRCDAPHGVPSAALDPAQTMSLLPGLEVARSTHPVEASSEEGFPEEAAPSMPHDSGLRAQQALNSIDLDVPTEAVTCQPQGNPQGCTPLLPNGSSHDHLSEPGSAGHAGNGALGGSKAHRKLQTHPPQPPNRSAFRRVAWSPPRVTRNTASRAW
B7 was tested, and the “Relative CAT Activity (%), 4RCAT” value [1] was 100%, the “Relative CAT Activity (%), MCK-CAT” value [1] was 100% and the “Relative CAT Activity (%), 4RCAT” value [2] was 101%. For the same binder, the “Relative CAT Activity (%), MCK-CAT” value [2] was 106% and the “Relative CAT Activity (%), MCK-CAT” value [3] was 111%.

B8: LexA-I-mfa (29-246) (other)
chain: MSLLPGLEVARSTHPVEASSEEGFPEEAAPSMPHDSGLRAQQALNSIDLDVPTEAVTCQPQGNPQGCTPLLPNGSSHDHLSEPGSAGHAGNGALGGSKAHRKLQTHPSLGSQAGRKSRGSARSASQVPLQAQEDCCVHCILSCLFCEFLTLCNILLDCATCGSCSSEDSCLCCCCCGSGECADCDLPCDLDCGIVDACCESADCLEICMECCGLCFSS
For B8, the β-galactosidase activity [4] was 0.7 arbitrary units and the β-galactosidase activity [5] was 0.8 arbitrary units.

B9: LexA-I-mfb (other)
chain: MKALTARQQEVFDLIRDHISQTGMPPTRAEIAQRLGFRSPNAAEEHLKALARKGVIEIVSGASRGIRLLQEEEEGLPLVGRVAAGEPLLAQQHIEGHYQVDPSLFKPNADFLLRVSGMSMKDIGIMDGDLLAVHKTQDVRNGQVVVARIDDEVTVKRLKKQGNKVELLPENSEFKPIVVDLRQQSFTIEGLAVGVIRNGDWLMSQVSGQCPSRCDAPHGVPSAALDPAQTMSLLPGLEVARSTHPVEASSEEGFPEEAAPSMPHDSGLRAQQALNSIDLDVPTEAVTCQPQGNPQGCTPLLPNGSSHDHLSEPGSAGHAGNGALGGSKAHRKLQTHPSLGSQAGRKSRGSARSASQVPLQAQEGKAPAVRIHRQTASPTCCLRNAQLSGTALRSLRLESQGHRELNNKTLSQSNNKKPGVAAHAAIIPALTRPKQNCHDPSLLPGTHGVGKEF
With B9 the binding result [7] was “no binding”, the β-galactosidase activity [6] was 0.4 arbitrary units and the β-galactosidase activity [8] was 0.9 arbitrary units. For the same binder, the β-galactosidase activity [5] was < 0.1 arbitrary units.

B10: LexA-I-mfa (87-202) (other)
chain: QPQGNPQGCTPLLPNGSSHDHLSEPGSAGHAGNGALGGSKAHRKLQTHPSLGSQAGRKSRGSARSASQVPLQAQEDCCVHCILSCLFCEFLTLCNILLDCATCGSCSSEDSCLCCC
For B10, the β-galactosidase activity [4] was 0.2 arbitrary units and the β-galactosidase activity [5] was < 0.1 arbitrary units.

B11: LexA-I-mfc (other)
chain: MKALTARQQEVFDLIRDHISQTGMPPTRAEIAQRLGFRSPNAAEEHLKALARKGVIEIVSGASRGIRLLQEEEEGLPLVGRVAAGEPLLAQQHIEGHYQVDPSLFKPNADFLLRVSGMSMKDIGIMDGDLLAVHKTQDVRNGQVVVARIDDEVTVKRLKKQGNKVELLPENSEFKPIVVDLRQQSFTIEGLAVGVIRNGDWLMSQVSGQCPSRCDAPHGVPSAALDPAQTMSLLPGLEVARSTHPVEASSEEGFPEEAAPSMPHDSGLRAQQALNSIDLDVPTEAVTCQPQGNPQGCTPLLPNGSSHDHLSEPGSAGHAGNGALGGSKAHRKLQTHPPQPPNRSAFRRVAWSPPRVTRNTASRAW
For B11, the β-galactosidase activity [9] was 0.4 arbitrary units, the β-galactosidase activity [6] was 0.3 arbitrary units and the β-galactosidase activity [4] was < 0.1 arbitrary units. For the same binder, the β-galactosidase activity [10] was < 0.1 arbitrary units and the binding result [11] was “no binding”.
